Laboratory results reported in FireProtDB (doi:10.1111/j.1432-1033.1995.tb20304.x).

Conditions: Hevea brasiliensis, Thermal, DSC, glycine 0.05 M, reversible: yes (~75%), whole UniProt chain shown

B1: Pro-hevein wild type, P02877 (protein)
chain: MNIFIVVLLCLTGVAIAEQCGRQAGGKLCPNNLCCSQWGWCGSTDEYCSPDHNCQSNCKDSGEGVGGGSASNVLATYHLYNSQDHGWDLNAASAYCSTWDANKPYSWRSKYGWTAFCGPVGAHGQSSCGKCLSVTNTGTGAKTTVRIVDQCSNGGLDLDVNVFRQLDTDGKGYERGHITVNYQFVDCGDSFNPLFSVMKSSVIN
pH 1.82
  Tm: 73 °C
  heat capacity change of unfolding: 0.37 kcal/mol/K
  unfolding enthalpy (calorimetric): 29 kcal/mol
  unfolding enthalpy (van 't Hoff): 43.4 kcal/mol
pH 2.1
  Tm: 74.2 °C
  heat capacity change of unfolding: 0.44 kcal/mol/K
  unfolding enthalpy (calorimetric): 28.6 kcal/mol
  unfolding enthalpy (van 't Hoff): 41.6 kcal/mol
pH 2.92
  Tm: 77.8 °C
  heat capacity change of unfolding: 0.5 kcal/mol/K
  unfolding enthalpy (calorimetric): 31 kcal/mol
  unfolding enthalpy (van 't Hoff): 41.5 kcal/mol
pH 3.2
  Tm: 83.6 °C
  heat capacity change of unfolding: 0.62 kcal/mol/K
  unfolding enthalpy (calorimetric): 34 kcal/mol
  unfolding enthalpy (van 't Hoff): 41.8 kcal/mol
pH 3.54
  Tm: 84.5 °C
  heat capacity change of unfolding: 0.44 kcal/mol/K
  unfolding enthalpy (calorimetric): 36.5 kcal/mol
  unfolding enthalpy (van 't Hoff): 41.6 kcal/mol
pH 3.67
  Tm: 90.1 °C
  heat capacity change of unfolding: 0.45 kcal/mol/K
  unfolding enthalpy (calorimetric): 38 kcal/mol
  unfolding enthalpy (van 't Hoff): 42.5 kcal/mol
